Reference: the nanobody polyreactivity screen of Harvey et al. (2022)

Assay: yeast display, Sf9 membrane polyspecificity reagent, FACS + sequencing; frameworks hold sequencing errors
Outline: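 A nanobody's polyreactivity label depends on the gate it was sorted from. Yeast display cells were stained with 10% biotinylated, detergent-solubilized Sf9 membrane reagent for 1 hour at 4 °C, enriched on streptavidin microbeads and sorted by FACS. The low and high (top ~1%) gates were set on anti-HA fluorescence for expression and streptavidin fluorescence for reagent binding.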

| Sequence | polyreactivity (PSR sort gate) |
| --- | --- |
| QVQLVESGGGLVQAGGSLRLSCAASGRIFNSNAMGWYRQAPGKERELAAAISKRGGSTFYADSVKGRFTISRDNAKNTVYLQMNSLKPEDTAVYYCNARRLSTGFERYDYWGQGTQVTVSS | high polyreactivity |
| QVQLVESGGCIVQAGGSLRLSCAASGITFLSNPMGWYSQAPGKERELVAAIDCRGDSTYYADSVKGRFTISRDNAKNTVYLQMNSLKPEDTAVYYCNADISGSGQWDGYDYWGQGTQVSVSS | low polyreactivity |
| QVQLVESGGGLVQARGSLRLSCAASGSIFYPYAMGWYRQAPGKERELVAGISRSGASTYYADSVKGRFTISRDNAKNTVYLQMNSLKPEDTAVYYCAADDWTRNYWGQGTQVTVSS | low polyreactivity |
| QVQLVESGGGLVQAGGSLRLSCAASGFILGYYAMGWYRQAPGKERELVAAISWNGGRTYYADSVKGRFTISRDNAKNTVYLQMNSLKPEDTAVYYCAVVATVIPWPYDYWGQGTQVTVSS | high polyreactivity |
| QVQRVESGGGLVQAGGSLRLSCAASGNTFKYNTMGWYRQAPGTERELVAAISSGGNTKYADSVKGRFTISRDNGKNTDYFQMNSLKPEDTAVNYCATTFPRKGRFRYDYWGQGTQVTVSS | high polyreactivity |
| QVHLVESGGGLVQAGGSLRLSCAASGSIFFDGNAMGWYRQAPGKERELVAAISVSGGSTYYADSVKGRFTISRDNAKNTVYLQMNSLKPEDTAVYYCAKYPSNSYVPGDYWGQGTQVTVSS | low polyreactivity |
| QVQLVESGGGLVQAGGSLRLSCAASGRIFRRYAMGWYRQAPGKERELVAVISRGGSTHYADSVKGRFTISRDNAKNTVYLQMNSLKPEDTAVYYCNAVVSVYTKDLDYWGQGTQVTVSS | high polyreactivity |
| QVQLVESGGGLVQAGGSLRLSCAASGFTFYTNAMGWYRQAPGKERDMVAVITSGGNTYYADSVKGRFTISRDNAKNTVYLQMNSLKPEDTAVYYFAAIPKRPIRFDYWGQGTQVTVSS | high polyreactivity |
| QVQLVESGGGLVQAGGSLRLSCAASGRIFARNAMGWSRQAPGKERELVAASSSGGGSTYYADSVKGRFTISRDNAKNTVYLRMISLKPEDTAVYYCAARTRITYDWGQGTQVTVSS | low polyreactivity |
| QVQLVESGGGLVQAGGSLCLSCAASGIFVYNAMGWYRPAPGKEREFVAAINKSGASTFYADSVKGRFTISRDTAKNTVYLQMNSLKPEDTAVYYCRERDYWGQGTQVTVSS | low polyreactivity |
| QVQLQESGGGLVQAGGSLRLSCAASGTIFRFRYMGWHRQAPGKERELVAGINGGTTTYYADSVIGRFTISRDNAIKTVYLQMNSLKPDDTAVYNCAAGASRLTYYDYWGQGTQVTVSS | low polyreactivity |
| QVQLVESGGGLVQAGGSLRLSCAASGFTFPVNAMGWYRQAPGKERELVAAITSGGRTNYADSVKGRFTISRDNAKNTVYLQMNSLKPEDTAVYYCAAKFGYYWNSRTSGYWGQGTQVTVSS | high polyreactivity |
| QVQLVESGGCLVQAGGTLRLSCAASGFIFYHNAMGWYRQAPGKERELVAAISGSGGSTHYADSVKGRFTISRDNAKNSVYLQMNSLKPEDTAVYYCARRFWFHYYGYDYWGQGSQVTVSS | high polyreactivity |
| QVQLEESGGGLVQAGGSLRLSCAASGRIFLYKIMGSYREAPGQERDLVAAISWGTGSTYADSVKGRFTISRDNAINTVYLQIYRLKPEDTAVYYCDADSFMPPYYHWGQGTQVTVSS | low polyreactivity |
| QLKLVESGGGLVQAGASLRLSCAASGSIFYGYTMGWYRQAPGKERELVAGISTYYADSVKGRFTISRDNAKNTVYLQMNSLKPEDTEVYYCAADYSSTTSEYDYWGQGTQVTVSS | low polyreactivity |
| QVQLVESGGGLVQAGGSLRLICAASGRTFNSNVMGRSRQAPGKERELVAAISGSSGSTRYADSVKGRFTISRDNAKNTVYLQMNSLKPEDTEVYYCAAYPLYRRRWTGDYWGQGTQVTVSS | high polyreactivity |
| QVQLVDSGGGLVQAGGSLRLSCAASGYIFYFNAMGWYRQAPGKEREMVAAISDRDDSTYYADSVKGRFTISRDNAKNTVYLQMNSLKPEDTAVYYCAADGYTYVDDPYDYWGQGTQVTVSS | low polyreactivity |
| QVQLVESGGGLVQAGGSLRLSCAASGLTFGLNALGWYRQAPGKERELVAAITWSGGSTYYADSVKGRFTISRDNAKNTVYLQMNSLKPEDTAVYYCATDNWSVNGGYNYWGQGTQVTVSS | low polyreactivity |
| QVQLVESGGGLVQARGSLRLSCAASGRTFAIYAMGWYRPAPGKEREFVAAISWSGGDTYYADSVKGRFTISRDNAKNTVYLQMNSLKPEDTAVYYCAARDNDYEGRDLQYELDYWGQGSQVTVSS | low polyreactivity |
| QLQHVESGGCLDQAGGSLRLSCAASGGIIPYRGWYRQAPGKQRELVASITSSGGSTYYADSVKGRFTISRDNAKNTVYLQMNSLKPEDTAVFYCAADPDFYKSVQYDYWGQGTQVTVSS | low polyreactivity |
| QVQLVESGGGLVQAGGSLRLSCAASGSTIRTNTMGWYRQAPGKERELVAAITKSGGSTYYADSVKGRFTISRDNAKNTVYLQMNSLKPEDTAVYYCAARVLYRSGLRGDYWGQGTQVTVSS | high polyreactivity |
| QVQLVESGGGLVQAGGSLRLSCAASGLTIYAYAMGWYRQAPGKERELVAIISYNGGRTYYADSVKGRFTISRDNAKNTVYLQMNSLKPEDTAVYYCAARGREVRYDYWGQGTQVTVSS | high polyreactivity |

| Sequence | polyreactivity (PSR sort gate) |
| --- | --- |
| QVQLVESGGGLVQAGGSLRLSCAASGRTFGSYAMGWYRQAPGKERELVAAITASGVRTYYADSVKGRFTISRDNAKNTVYLQMNSLKPEDTAVYYCNARRLSTVQYDYWGQGTQVTVSS | high polyreactivity |
| QVQLVESGGGLVQAGGSLRLSCAASGYTYEYYAMGWYRQAPGKERELVAAISWSGGDTYYADSVKGRFTISRDNAKNTVYIQMNSLKPEDTAVYYCNAVLYTYYYYANWYGAYDYWGQGTQVTVCS | low polyreactivity |
| QVQLVESGGGLVQAGGSLRLSCAASGFTFSWYPMGWYRQAPGKERELVAAITSGGGTNYADSVKGRFTISRDNAKNTVYLQMNSLIPEDTAVYYCAARGRWFYYLDDYWGQGTQVTVSS | low polyreactivity |
| QVQLVESGGGLVQAGGSLRLSCAASGRTFKRYAMGWYRQAPGKERELVAAITFSGGSTYYADSVKGRFTISRDNAKNTVYLQMNSLKPADTAVYYCAAVGEHYPWDYYWGQGTQVTVSS | high polyreactivity |
| QVQLVESGGGLVQAGGILRLSCAASGRITFSHNTMGWYIQAPGKERELVAAISSGGRTNYADSVKGRFTISRDNAKNTVYLQMNSLKPEDTAVYYCARESHYDFIYDGMDYWGQGTQVTVSS | low polyreactivity |
| QVQLVESGGGLVQAGGSLRLSCAASGSIFRYYAMGWYRQAPGKEREFVAAINTNDAGTYYADSVKGRFTISRDNAKNTVYLQMNSLKPEDTAVYYCAADTGYPFWYDYWGQGTQVTVSS | high polyreactivity |
| QVQLVESGGGLVQAGGSLRLSCAASGRTFAYYTMGWYRQAPGKERELVDAISSRGGRTYYADSVKGRFTISRDNAKNTVYLQMNSLKPEDTAVYYCAAVSHGVYYQYRRRYYSWGQGTQVTVSS | high polyreactivity |
| QVQLVESGGGLVQAGGSLRLSCAASGFSFYRYAMGWYRQAPAKERELVARTYYADSVKGRFTISRDNAKNTVYLQMNSLKPEDTAVYYCNKDLELEYRYEYWGQGTQVTVSS | low polyreactivity |
| QVQLVESGGGLVQAGGSRRLSCAASGNTIYFYVMGWYRQAPGKERELVAAISSSGGSTYYADSVKGRFTISRDNAKNTVYLQMNSLKPEDTSVYYCAAEMYLSRLRYWYDYWGQGTQVTVSS | high polyreactivity |
| QVQLVESGGGLVQAGGSLRLSCAASGIIFVYYVMGWYRQAPGKERELVAAISWDGGSTYYADSVKGRFTISRDNAKNTVYLQMNSLKPEDTAVYYCAARYKGNPDRYGYWGLGTQVTVSS | high polyreactivity |
| QVHLVESGGGLVHAGGSIRLSCAASGSIFGYYAMGWYRQAPGKEREFVAAITWNGGSTYYADSVKGRFTISRDNAKNTVYLEMISLKPEDTAVYYCARTSYARFRNGWTYDHWGQGTQVSVSS | low polyreactivity |
| QVQLVESGGGLVEAVGSLRLSCAASGINFQGNAMGWSRQAPGKERELVASITAGGDTTYYADSVKGRFTISRDNAKNTVYFQMNSLKPEDTAVYYCATRLYGYWPYGFDYWGQGTQVTVSS | low polyreactivity |
| QVQLVESGGGLVQAGGSLRVSCAASGSTFVGNAMGWYRQEPGKERELVADITSGGSTNYADSVKGRFTISRDNAKNTVYLQMKSLKPEDTAVYYFAAVYLCSQRREFWGQGTQVTVSS | low polyreactivity |
| QVQLVESGGGLVQAGGSLRLSCAASGSIFGTNAMGWYRQAPGKERELVAAIRGSGGRTYYADSVKGRFTISRDNAKNTVYLQMNSLKPEDTAVYYCAARWGPYYGGVRYGYWGQGTQVTVSS | high polyreactivity |
| QVQLVESGGGLVQAGGSLRLSCAASGSTFPYNAMGWYRPAPGKERELVAAISSGGITYYADSVKGRFTISRDNAKNTVYLQMNSLIPEDTAVYYCAATVLGDYEYWGQGTQVTVSS | low polyreactivity |
| QVQLVESGGGLVQAGGSLRLSCAASGRIFKWNAMGWYRQAPGKERELVAAITYRDDTTYYADSVKGRFTISRDNAKNTVYLQMNSLKPEDTAVYYCNAAWRPCRPFRGFTEGEYDYWGQGTQVTVSS | low polyreactivity |
| QVQLVESGGGLVQAGGSLRLSCAASGSTFAEYAMGWYRQAPGKERELVAAIRWSGGSTSYADSVKGRFTMSRDNAKHTVYLQMNSLKPEDTAVYYCAAERFWYDGAVKLYVLSYYWGQGTQVTVSS | low polyreactivity |
| QVQLVESGGGLVQAGGSLRLSCAASGIIFLDYVMGWYRQAPGKERELVAAINSGGSTYYADSVKGRFTISRANAKNNVYLQMNSLKPEDSAVYYCNAVFYDDWQIYDYWGQGTQVTVSS | low polyreactivity |
| QVQLVESVGGLVQEGGSLRLRCAASGSTFNKYTMGWYRQAPGKERELVAAISLRGGSTYYADSVKGRFTISRDNAKNTVYLQMNSLKPEDTAVYYCNADATHDWLRVDTYEYWGHGTQVTVSS | low polyreactivity |
| QVQLVESGGGLVQAGGSLRLSCAASGSTFQRYTMGWYRQPPGKERELVAAISQSGGRTYYADSVKGRFTISRDNAKNTVYLQMNSLKPEDTAVYYCNAASRTKFDYWGQGTQVTVTS | high polyreactivity |
| QVQLVETGGGLVQAGGSLRLSCAASGIIFSRYAMGWYRQAPGIERELVASITGRVGSTYYADSVKGRFTISRDNAKNTVYLQMNRLKPEDTAVYYCAADYGYKFDYWGQGTQVTVSA | low polyreactivity |
